Laboratory results as given in paper PMC7954794, “Protein context shapes the specificity of SH3 domain-mediated interactions in vivo” (Nature Communications, 2021).

System: growth of yeast strains under 51 stress conditions
Experiment: Growth assays in 51 stress conditions (Fig. 1E-F, S2D, S5B)
Format: cell-based, Saccharomyces cerevisiae
Design: key to Growth (Fig. S2D) / growth of ABP1 SH3-swapped strains in stress condition: log2 colony size, average of median per strain (growth score)
Conditions: for growth of ABP1 SH3-swapped strains in stress condition: FigS2D; for Growth (Fig. S2D): ABP1 SH3-swapped strains
Method in brief: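 Yeast WT, SH3-deleted, KO, SH3-swapped and SH3-shuffled strains pinned in 1536 format, 12 replicates each; pregrown on YPD 2 days at 30 °C, then replicated onto 51 media at 37 °C and imaged every 2 h. Growth score = mean of per-plate median log2 colony size at 74 h.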

B1: PIN3 (protein, UniProt Q06449 2-215, looked up)
[PSI+] inducibility protein 3: SASLINRSLTNIRTELDFLKGSNVISNDVYDQINKSLPAKWDPANAPRNASPASLEYVEALYQFDPQQDGDLGLKPGDKVQLLEKLSPEWYKGSCNGRTGIFPANYVKPAFSGSNGPSNLPPPPQYKAQELQQIPTQNSAASSYQQQPFPPPSTNYYQQPQQQPQQAPPPQQQQQQQQHQSSHSHLKSFGSKLGNAAIFGAGASIGSDIVNNIF
Bathophenanthroline.0.1uM
  growth of ABP1 SH3-swapped strains in stress condition: 10.8166
Bathophenanthroline.10uM
  growth of ABP1 SH3-swapped strains in stress condition: 10.6603
Bathophenanthroline.1uM
  growth of ABP1 SH3-swapped strains in stress condition: 10.7601
CaCl2.100mM
  growth of ABP1 SH3-swapped strains in stress condition: 10.8086
CaCl2.250mM
  growth of ABP1 SH3-swapped strains in stress condition: 10.7002
CaCl2.500mM
  growth of ABP1 SH3-swapped strains in stress condition: 10.193
Caffein.10mM
  growth of ABP1 SH3-swapped strains in stress condition: 10.1104
Caffein.2mM
  growth of ABP1 SH3-swapped strains in stress condition: 10.9501
CdCl2.100uM
  growth of ABP1 SH3-swapped strains in stress condition: 9.413
CdCl2.10uM
  growth of ABP1 SH3-swapped strains in stress condition: 10.8515
CdCl2.50uM
  growth of ABP1 SH3-swapped strains in stress condition: 9.821
CuSO4.1mM
  growth of ABP1 SH3-swapped strains in stress condition: 10.439
CuSO4.5mM
  growth of ABP1 SH3-swapped strains in stress condition: 7.85
Cycloheximide.0.05.uM
  growth of ABP1 SH3-swapped strains in stress condition: 11.0946
Cycloheximide.0.2.uM
  growth of ABP1 SH3-swapped strains in stress condition: 10.6691
Cycloheximide.0.5.uM
  growth of ABP1 SH3-swapped strains in stress condition: 10.0558
DMSO.2.
  growth of ABP1 SH3-swapped strains in stress condition: 10.999
DMSO.6.
  growth of ABP1 SH3-swapped strains in stress condition: 9.863
DMSO.8.
  growth of ABP1 SH3-swapped strains in stress condition: 9.083
Ethanol.2.
  growth of ABP1 SH3-swapped strains in stress condition: 10.7656
Ethanol.6.
  growth of ABP1 SH3-swapped strains in stress condition: 10.3279
Ethanol.8.
  growth of ABP1 SH3-swapped strains in stress condition: 10.22
Galactose.2.
  growth of ABP1 SH3-swapped strains in stress condition: 10.8019
Glycerol.2.
  growth of ABP1 SH3-swapped strains in stress condition: 9.823
Hydroxyurea.25mM
  growth of ABP1 SH3-swapped strains in stress condition: 10.7882
Hygromycin.190uM
  growth of ABP1 SH3-swapped strains in stress condition: 10.9875
Hygromycin.19uM
  growth of ABP1 SH3-swapped strains in stress condition: 10.9831
Hygromycin.95uM
  growth of ABP1 SH3-swapped strains in stress condition: 10.9742
MMS.0.004.
  growth of ABP1 SH3-swapped strains in stress condition: 10.989
MMS.0.02.
  growth of ABP1 SH3-swapped strains in stress condition: 10.7926
MMS.0.04.
  growth of ABP1 SH3-swapped strains in stress condition: 10.0504
Menadione.100uM
  growth of ABP1 SH3-swapped strains in stress condition: 10.5651
Menadione.200uM
  growth of ABP1 SH3-swapped strains in stress condition: 10.4599
Menadione.50uM
  growth of ABP1 SH3-swapped strains in stress condition: 10.8547
NaCl.0.25M
  growth of ABP1 SH3-swapped strains in stress condition: 10.7663
NaCl.1M
  growth of ABP1 SH3-swapped strains in stress condition: 9.587
Nitroquinoline.10uM
  growth of ABP1 SH3-swapped strains in stress condition: 10.765
Nitroquinoline.50uM
  growth of ABP1 SH3-swapped strains in stress condition: 10.634
Nystatin.0.01uM
  growth of ABP1 SH3-swapped strains in stress condition: 10.9089
Nystatin.0.1uM
  growth of ABP1 SH3-swapped strains in stress condition: 10.9679
Raffinose.2.
  growth of ABP1 SH3-swapped strains in stress condition: 10.9939
Rapamycin.10nM
  growth of ABP1 SH3-swapped strains in stress condition: 9.886
Rapamycin.50nM
  growth of ABP1 SH3-swapped strains in stress condition: 9.402
SC.pH3
  growth of ABP1 SH3-swapped strains in stress condition: 10.4061
SC.pH6
  growth of ABP1 SH3-swapped strains in stress condition: 11.0349
SDS.0.01.
  growth of ABP1 SH3-swapped strains in stress condition: 10.9539
SDS.0.02.
  growth of ABP1 SH3-swapped strains in stress condition: 10.9685
SDS.0.05.
  growth of ABP1 SH3-swapped strains in stress condition: 10.8165
Sorbitol.10mM
  growth of ABP1 SH3-swapped strains in stress condition: 10.9792
Sorbitol.1mM
  growth of ABP1 SH3-swapped strains in stress condition: 10.9728
Sorbitol.5mM
  growth of ABP1 SH3-swapped strains in stress condition: 10.9245

B2: PEX13 (protein, UniProt P80667 1-386, looked up)
Peroxisomal membrane protein …: MSSTAVPRPKPWETSASLEEPQRNAQSLSAMMTSNQQDSRPTEESNNSNSASESAPEVLPRPAALNSSGTYGESNTIPGIYGNSNYGIPYDNNPYSMNSIYGNSIGRYGYGGSYYGNNYGSFYGGGYGAGAGYGMNNGSGLGESTKATFQLIESLIGAVTGFAQMLESTYMATHNSFFTMISVAEQFGNLKEMLGSFFGIFAIMKFLKKILYRATKGRLGIPPKNFAESEGSKNKLIEDFQKFNDSGTINSNEKATRRKISWKPLLFFLMAVFGFPYLLNKFITKLQTSGTIRASQGNGSEPIDPSKLEFARALYDFVPENPEMEVALKKGDLMAILSKKDPLGRDSDWWKVRTKNGNIGYIPYNYIEIIKRRKKIEHVDDETRTH
Bathophenanthroline.0.1uM
  Growth (Fig. S2D): 10.7929
Bathophenanthroline.10uM
  Growth (Fig. S2D): 10.6448
Bathophenanthroline.1uM
  Growth (Fig. S2D): 10.7999
CaCl2.100mM
  Growth (Fig. S2D): 10.8263
CaCl2.250mM
  Growth (Fig. S2D): 10.7201
CaCl2.500mM
  Growth (Fig. S2D): 10.3034
Caffein.10mM
  Growth (Fig. S2D): 10.0127
Caffein.2mM
  Growth (Fig. S2D): 10.9279
CdCl2.100uM
  Growth (Fig. S2D): 9.606
CdCl2.10uM
  Growth (Fig. S2D): 10.8888
CdCl2.50uM
  Growth (Fig. S2D): 9.97
CuSO4.1mM
  Growth (Fig. S2D): 10.4898
CuSO4.5mM
  Growth (Fig. S2D): 8.152
Cycloheximide.0.05.uM
  Growth (Fig. S2D): 11.0541
Cycloheximide.0.2.uM
  Growth (Fig. S2D): 10.6387
Cycloheximide.0.5.uM
  Growth (Fig. S2D): 10.1719
DMSO.2.
  Growth (Fig. S2D): 11.0404
DMSO.6.
  Growth (Fig. S2D): 10.0301
DMSO.8.
  Growth (Fig. S2D): 9.367
Ethanol.2.
  Growth (Fig. S2D): 10.7664
Ethanol.6.
  Growth (Fig. S2D): 10.3235
Ethanol.8.
  Growth (Fig. S2D): 10.0926
Galactose.2.
  Growth (Fig. S2D): 10.787
Glycerol.2.
  Growth (Fig. S2D): 9.849
Hydroxyurea.25mM
  Growth (Fig. S2D): 10.7235
Hygromycin.190uM
  Growth (Fig. S2D): 10.9621
Hygromycin.19uM
  Growth (Fig. S2D): 10.9745
Hygromycin.95uM
  Growth (Fig. S2D): 11.0265
MMS.0.004.
  Growth (Fig. S2D): 10.9502
MMS.0.02.
  Growth (Fig. S2D): 10.7047
MMS.0.04.
  Growth (Fig. S2D): 10.0276
Menadione.100uM
  Growth (Fig. S2D): 10.6371
Menadione.200uM
  Growth (Fig. S2D): 10.4195
Menadione.50uM
  Growth (Fig. S2D): 10.8434
NaCl.0.25M
  Growth (Fig. S2D): 10.6874
NaCl.1M
  Growth (Fig. S2D): 9.71
Nitroquinoline.10uM
  Growth (Fig. S2D): 10.7399
Nitroquinoline.50uM
  Growth (Fig. S2D): 10.726
Nystatin.0.01uM
  Growth (Fig. S2D): 11.0207
Nystatin.0.1uM
  Growth (Fig. S2D): 11.0033
Raffinose.2.
  Growth (Fig. S2D): 10.9918
Rapamycin.10nM
  Growth (Fig. S2D): 9.862
Rapamycin.50nM
  Growth (Fig. S2D): 9.428
SC.pH3
  Growth (Fig. S2D): 10.3898
SC.pH6
  Growth (Fig. S2D): 10.9788
SDS.0.01.
  Growth (Fig. S2D): 10.9752
SDS.0.02.
  Growth (Fig. S2D): 10.9697
SDS.0.05.
  Growth (Fig. S2D): 10.895
Sorbitol.10mM
  Growth (Fig. S2D): 10.9735
Sorbitol.1mM
  Growth (Fig. S2D): 11.0343
Sorbitol.5mM
  Growth (Fig. S2D): 10.9175
